Laboratory results: article PMC6624373, “Lamin A molecular compression and sliding as mechanisms behind nucleoskeleton elasticity” (Nature Communications, 2019)

B1: lamin A R25G (natural protein, human, UniProt P02545 1-646, looked up)
chain: METPSQRRATRSGAQASSTPLSPTGITRLQEKEDLQELNDRLAVYIDRVRSLETENAGLRLRITESEEVVSREVSGIKAAYEAELGDARKTLDSVAKERARLQLELSKVREEFKELKARNTKKEGDLIAAQARLKDLEALLNSKEAALSTALSEKRTLEGELHDLRGQVAKLEAALGEAKKQLQDEMLRRVDAENRLQTMKEELDFQKNIYSEELRETKRRHETRLVEIDNGKQREFESRLADALQELRAQHEDQVEQYKKELEKTYSAKLDNARQSAERNSNLVGAAHEELQQSRIRIDSLSAQLSQLQKQLAAKEAKLRDLEDSLARERDTSRRLLAEKEREMAEMRARMQQQLDEYQELLDIKLALDMEIHAYRKLLEGEEERLRLSPSPTSQRSRGRASSHSSQTQGGGSVTKKRKLESTESRSSFSQHARTSGRVAVEEVDEEGKFVRLRNKSNEDQSMGNWQIKRQNGDDPLLTYRFPPKFTLKAGQVVTIWAAGAGATHSPPTDLVWKAQNTWGCGNSLRTALINSTGEEVAMRKLVRSVTVVEDDEDEDGDDLLHHHHGSHCSSSGDPAEYNLRSRTVLCGTCGQPADKASASGSGAQVGGPISSGSSASSVTVTRSYRSVGGSGGGSFGDNLVTRSY
notes: lamin A, human; pre-lamin A without its last 18 amino acids, as m1; mutation associated with EDMD/LGMD1B; source: E. coli (pET28b); purification of the mutants not separately stated
B2: lamin A E33G (natural protein, human, UniProt P02545 1-646, looked up)
chain: METPSQRRATRSGAQASSTPLSPTRITRLQEKGDLQELNDRLAVYIDRVRSLETENAGLRLRITESEEVVSREVSGIKAAYEAELGDARKTLDSVAKERARLQLELSKVREEFKELKARNTKKEGDLIAAQARLKDLEALLNSKEAALSTALSEKRTLEGELHDLRGQVAKLEAALGEAKKQLQDEMLRRVDAENRLQTMKEELDFQKNIYSEELRETKRRHETRLVEIDNGKQREFESRLADALQELRAQHEDQVEQYKKELEKTYSAKLDNARQSAERNSNLVGAAHEELQQSRIRIDSLSAQLSQLQKQLAAKEAKLRDLEDSLARERDTSRRLLAEKEREMAEMRARMQQQLDEYQELLDIKLALDMEIHAYRKLLEGEEERLRLSPSPTSQRSRGRASSHSSQTQGGGSVTKKRKLESTESRSSFSQHARTSGRVAVEEVDEEGKFVRLRNKSNEDQSMGNWQIKRQNGDDPLLTYRFPPKFTLKAGQVVTIWAAGAGATHSPPTDLVWKAQNTWGCGNSLRTALINSTGEEVAMRKLVRSVTVVEDDEDEDGDDLLHHHHGSHCSSSGDPAEYNLRSRTVLCGTCGQPADKASASGSGAQVGGPISSGSSASSVTVTRSYRSVGGSGGGSFGDNLVTRSY
notes: as for B1
B3: lamin A R401E (natural protein, human, UniProt P02545 1-646, looked up)
chain: METPSQRRATRSGAQASSTPLSPTRITRLQEKEDLQELNDRLAVYIDRVRSLETENAGLRLRITESEEVVSREVSGIKAAYEAELGDARKTLDSVAKERARLQLELSKVREEFKELKARNTKKEGDLIAAQARLKDLEALLNSKEAALSTALSEKRTLEGELHDLRGQVAKLEAALGEAKKQLQDEMLRRVDAENRLQTMKEELDFQKNIYSEELRETKRRHETRLVEIDNGKQREFESRLADALQELRAQHEDQVEQYKKELEKTYSAKLDNARQSAERNSNLVGAAHEELQQSRIRIDSLSAQLSQLQKQLAAKEAKLRDLEDSLARERDTSRRLLAEKEREMAEMRARMQQQLDEYQELLDIKLALDMEIHAYRKLLEGEEERLRLSPSPTSQRSRGEASSHSSQTQGGGSVTKKRKLESTESRSSFSQHARTSGRVAVEEVDEEGKFVRLRNKSNEDQSMGNWQIKRQNGDDPLLTYRFPPKFTLKAGQVVTIWAAGAGATHSPPTDLVWKAQNTWGCGNSLRTALINSTGEEVAMRKLVRSVTVVEDDEDEDGDDLLHHHHGSHCSSSGDPAEYNLRSRTVLCGTCGQPADKASASGSGAQVGGPISSGSSASSVTVTRSYRSVGGSGGGSFGDNLVTRSY
notes: lamin A, human; pre-lamin A without its last 18 amino acids, as m1; de novo mutant; source: E. coli (pET28b); purification of the mutants not separately stated
B4: lamin A E82K (natural protein, human, UniProt P02545 1-646, looked up)
chain: METPSQRRATRSGAQASSTPLSPTRITRLQEKEDLQELNDRLAVYIDRVRSLETENAGLRLRITESEEVVSREVSGIKAAYKAELGDARKTLDSVAKERARLQLELSKVREEFKELKARNTKKEGDLIAAQARLKDLEALLNSKEAALSTALSEKRTLEGELHDLRGQVAKLEAALGEAKKQLQDEMLRRVDAENRLQTMKEELDFQKNIYSEELRETKRRHETRLVEIDNGKQREFESRLADALQELRAQHEDQVEQYKKELEKTYSAKLDNARQSAERNSNLVGAAHEELQQSRIRIDSLSAQLSQLQKQLAAKEAKLRDLEDSLARERDTSRRLLAEKEREMAEMRARMQQQLDEYQELLDIKLALDMEIHAYRKLLEGEEERLRLSPSPTSQRSRGRASSHSSQTQGGGSVTKKRKLESTESRSSFSQHARTSGRVAVEEVDEEGKFVRLRNKSNEDQSMGNWQIKRQNGDDPLLTYRFPPKFTLKAGQVVTIWAAGAGATHSPPTDLVWKAQNTWGCGNSLRTALINSTGEEVAMRKLVRSVTVVEDDEDEDGDDLLHHHHGSHCSSSGDPAEYNLRSRTVLCGTCGQPADKASASGSGAQVGGPISSGSSASSVTVTRSYRSVGGSGGGSFGDNLVTRSY
notes: lamin A, human; pre-lamin A without its last 18 amino acids, as m1; mutation associated with DCM-CD; source: E. coli (pET28b); purification of the mutants not separately stated
B5: lamin A R388E (natural protein, human, UniProt P02545 1-646, looked up)
chain: METPSQRRATRSGAQASSTPLSPTRITRLQEKEDLQELNDRLAVYIDRVRSLETENAGLRLRITESEEVVSREVSGIKAAYEAELGDARKTLDSVAKERARLQLELSKVREEFKELKARNTKKEGDLIAAQARLKDLEALLNSKEAALSTALSEKRTLEGELHDLRGQVAKLEAALGEAKKQLQDEMLRRVDAENRLQTMKEELDFQKNIYSEELRETKRRHETRLVEIDNGKQREFESRLADALQELRAQHEDQVEQYKKELEKTYSAKLDNARQSAERNSNLVGAAHEELQQSRIRIDSLSAQLSQLQKQLAAKEAKLRDLEDSLARERDTSRRLLAEKEREMAEMRARMQQQLDEYQELLDIKLALDMEIHAYRKLLEGEEERLELSPSPTSQRSRGRASSHSSQTQGGGSVTKKRKLESTESRSSFSQHARTSGRVAVEEVDEEGKFVRLRNKSNEDQSMGNWQIKRQNGDDPLLTYRFPPKFTLKAGQVVTIWAAGAGATHSPPTDLVWKAQNTWGCGNSLRTALINSTGEEVAMRKLVRSVTVVEDDEDEDGDDLLHHHHGSHCSSSGDPAEYNLRSRTVLCGTCGQPADKASASGSGAQVGGPISSGSSASSVTVTRSYRSVGGSGGGSFGDNLVTRSY
notes: as for B3
B6: lamin A R388C (natural protein, human, UniProt P02545 1-646, looked up)
chain: METPSQRRATRSGAQASSTPLSPTRITRLQEKEDLQELNDRLAVYIDRVRSLETENAGLRLRITESEEVVSREVSGIKAAYEAELGDARKTLDSVAKERARLQLELSKVREEFKELKARNTKKEGDLIAAQARLKDLEALLNSKEAALSTALSEKRTLEGELHDLRGQVAKLEAALGEAKKQLQDEMLRRVDAENRLQTMKEELDFQKNIYSEELRETKRRHETRLVEIDNGKQREFESRLADALQELRAQHEDQVEQYKKELEKTYSAKLDNARQSAERNSNLVGAAHEELQQSRIRIDSLSAQLSQLQKQLAAKEAKLRDLEDSLARERDTSRRLLAEKEREMAEMRARMQQQLDEYQELLDIKLALDMEIHAYRKLLEGEEERLCLSPSPTSQRSRGRASSHSSQTQGGGSVTKKRKLESTESRSSFSQHARTSGRVAVEEVDEEGKFVRLRNKSNEDQSMGNWQIKRQNGDDPLLTYRFPPKFTLKAGQVVTIWAAGAGATHSPPTDLVWKAQNTWGCGNSLRTALINSTGEEVAMRKLVRSVTVVEDDEDEDGDDLLHHHHGSHCSSSGDPAEYNLRSRTVLCGTCGQPADKASASGSGAQVGGPISSGSSASSVTVTRSYRSVGGSGGGSFGDNLVTRSY
notes: lamin A, human; pre-lamin A without its last 18 amino acids, as m1; mutation associated with CMD; source: E. coli (pET28b); purification of the mutants not separately stated
B7: lamin A R401C (natural protein, human, UniProt P02545 1-646, looked up)
chain: METPSQRRATRSGAQASSTPLSPTRITRLQEKEDLQELNDRLAVYIDRVRSLETENAGLRLRITESEEVVSREVSGIKAAYEAELGDARKTLDSVAKERARLQLELSKVREEFKELKARNTKKEGDLIAAQARLKDLEALLNSKEAALSTALSEKRTLEGELHDLRGQVAKLEAALGEAKKQLQDEMLRRVDAENRLQTMKEELDFQKNIYSEELRETKRRHETRLVEIDNGKQREFESRLADALQELRAQHEDQVEQYKKELEKTYSAKLDNARQSAERNSNLVGAAHEELQQSRIRIDSLSAQLSQLQKQLAAKEAKLRDLEDSLARERDTSRRLLAEKEREMAEMRARMQQQLDEYQELLDIKLALDMEIHAYRKLLEGEEERLRLSPSPTSQRSRGCASSHSSQTQGGGSVTKKRKLESTESRSSFSQHARTSGRVAVEEVDEEGKFVRLRNKSNEDQSMGNWQIKRQNGDDPLLTYRFPPKFTLKAGQVVTIWAAGAGATHSPPTDLVWKAQNTWGCGNSLRTALINSTGEEVAMRKLVRSVTVVEDDEDEDGDDLLHHHHGSHCSSSGDPAEYNLRSRTVLCGTCGQPADKASASGSGAQVGGPISSGSSASSVTVTRSYRSVGGSGGGSFGDNLVTRSY
notes: lamin A, human; pre-lamin A without its last 18 amino acids, as m1; mutation associated with EDMD; source: E. coli (pET28b); purification of the mutants not separately stated
B8: lamin A E65G (natural protein, human, UniProt P02545 1-646, looked up)
chain: METPSQRRATRSGAQASSTPLSPTRITRLQEKEDLQELNDRLAVYIDRVRSLETENAGLRLRITGSEEVVSREVSGIKAAYEAELGDARKTLDSVAKERARLQLELSKVREEFKELKARNTKKEGDLIAAQARLKDLEALLNSKEAALSTALSEKRTLEGELHDLRGQVAKLEAALGEAKKQLQDEMLRRVDAENRLQTMKEELDFQKNIYSEELRETKRRHETRLVEIDNGKQREFESRLADALQELRAQHEDQVEQYKKELEKTYSAKLDNARQSAERNSNLVGAAHEELQQSRIRIDSLSAQLSQLQKQLAAKEAKLRDLEDSLARERDTSRRLLAEKEREMAEMRARMQQQLDEYQELLDIKLALDMEIHAYRKLLEGEEERLRLSPSPTSQRSRGRASSHSSQTQGGGSVTKKRKLESTESRSSFSQHARTSGRVAVEEVDEEGKFVRLRNKSNEDQSMGNWQIKRQNGDDPLLTYRFPPKFTLKAGQVVTIWAAGAGATHSPPTDLVWKAQNTWGCGNSLRTALINSTGEEVAMRKLVRSVTVVEDDEDEDGDDLLHHHHGSHCSSSGDPAEYNLRSRTVLCGTCGQPADKASASGSGAQVGGPISSGSSASSVTVTRSYRSVGGSGGGSFGDNLVTRSY
notes: as for B1

Target: the molecule itself
Assay: rotary metal shadowing EM; in vitro assembly assay: after dialysis into 25 mM MES, 150 mM NaCl, 1 mM DTT, 1 mM EGTA pH 6.5, 30% glycerol; dimers scored as singular or incorporated into head-to-tail oligomers

Stoichiometry N, 2:
B1
B2
B3
B4
B5
B6
B7
B8
